Reference: the supplement of paper PMC10567573

B1: PLAGL1 (parent)
chain: EKPPSGTKEKKHQCDHCERCFYTR
B2: RIPK4 (parent)
chain: AAWQGHLPIVKLLAKQPGVSVNAQ

Variants of: B1
Assay: protein stability index of a GFP-peptide fusion (GPS, HEK-293T) (PSI 1-6); higher = more stable
Conditions: c terminus: a fixed tail appended
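Also: lentivirally expressed fusions sorted by FACS into six bins by GFP to DsRed ratio, PSI derived from sequencing read proportions per bin multiplied by bin number.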

| Variant | protein stability index |
| --- | --- |
| EKPPSGTKEKKHQCDHCERWFYTR | 2.35 |
| EKPPSGTKEKKHQCDHCERYFYTR | 2.66 |
| EKPPSGTKEKKHQCDHCERCAYTR | 4.06 |
| EKPPSGTKEKKHQCDHCERCCYTR | 3.88 |
| EKPPSGTKEKKHQCDHCERCDYTR | 4.34 |
| EKPPSGTKEKKHQCDHCERCEYTR | 4.11 |
| EKPPSGTKEKKHQCDHCERCGYTR | 4.32 |
| EKPPSGTKEKKHQCDHCERCHYTR | 3.51 |
| EKPPSGTKEKKHQCDHCERCIYTR | 4.52 |
| EKPPSGTKEKKHQCDHCERCKYTR | 4.39 |
| EKPPSGTKEKKHQCDHCERCLYTR | 4.08 |
| EKPPSGTKEKKHQCDHCERCMYTR | 4.75 |
| EKPPSGTKEKKHQCDHCERCNYTR | 4.33 |
| EKPPSGTKEKKHQCDHCERCPYTR | 3.75 |
| EKPPSGTKEKKHQCDHCERCQYTR | 5.02 |
| EKPPSGTKEKKHQCDHCERCRYTR | 4.15 |
| EKPPSGTKEKKHQCDHCERCSYTR | 4.22 |
| EKPPSGTKEKKHQCDHCERCTYTR | 4.26 |
| EKPPSGTKEKKHQCDHCERCVYTR | 3.95 |
| EKPPSGTKEKKHQCDHCERCYYTR | 4.37 |
| EKPPSGTKEKKHQCDHCERCFATR | 4.25 |
| EKPPSGTKEKKHQCDHCERCFCTR | 4.84 |
| EKPPSGTKEKKHQCDHCERCFDTR | 4.58 |
| EKPPSGTKEKKHQCDHCERCFETR | 4.67 |
| EKPPSGTKEKKHQCDHCERCFFTR | 3.35 |
| EKPPSGTKEKKHQCDHCERCFGTR | 4.03 |

| Variant | protein stability index |
| --- | --- |
| EKPPSGTKEKKHQCDHCERCFHTR | 4.13 |
| EKPPSGTKEKKHQCDHCERCFITR | 4.17 |
| EKPPSGTKEKKHQCDHCERCFKTR | 4.45 |
| EKPPSGTKEKKHQCDHCERCFLTR | 4.35 |
| EKPPSGTKEKKHQCDHCERCFMTR | 4.37 |
| EKPPSGTKEKKHQCDHCERCFNTR | 4.22 |
| EKPPSGTKEKKHQCDHCERCFPTR | 4.05 |
| EKPPSGTKEKKHQCDHCERCFQTR | 4.21 |
| EKPPSGTKEKKHQCDHCERCFRTR | 4.3 |
| EKPPSGTKEKKHQCDHCERCFSTR | 4.17 |
| EKPPSGTKEKKHQCDHCERCFTTR | 3.89 |
| EKPPSGTKEKKHQCDHCERCFVTR | 3.69 |
| EKPPSGTKEKKHQCDHCERCFWTR | 3.18 |
| EKPPSGTKEKKHQCDHCERCFYAR | 3.89 |
| EKPPSGTKEKKHQCDHCERCFYCR | 4.64 |
| EKPPSGTKEKKHQCDHCERCFYDR | 4.63 |
| EKPPSGTKEKKHQCDHCERCFYER | 5.09 |
| EKPPSGTKEKKHQCDHCERCFYFR | 3.97 |
| EKPPSGTKEKKHQCDHCERCFYGR | 4.1 |
| EKPPSGTKEKKHQCDHCERCFYHR | 3.86 |
| EKPPSGTKEKKHQCDHCERCFYIR | 4.03 |
| EKPPSGTKEKKHQCDHCERCFYKR | 3.99 |
| EKPPSGTKEKKHQCDHCERCFYLR | 4.64 |
| EKPPSGTKEKKHQCDHCERCFYMR | 4.34 |
| EKPPSGTKEKKHQCDHCERCFYNR | 2.86 |
| EKPPSGTKEKKHQCDHCERCFYPR | 3.64 |

| Variant | protein stability index |
| --- | --- |
| EKPPSGTKEKKHQCDHCERCFYQR | 4.01 |
| EKPPSGTKEKKHQCDHCERCFYRR | 3.4 |
| EKPPSGTKEKKHQCDHCERCFYSR | 3.79 |
| EKPPSGTKEKKHQCDHCERCFYVR | 4.11 |
| EKPPSGTKEKKHQCDHCERCFYWR | 4.12 |
| EKPPSGTKEKKHQCDHCERCFYYR | 3.83 |
| EKPPSGTKEKKHQCDHCERCFYTA | 4.68 |
| EKPPSGTKEKKHQCDHCERCFYTC | 4.61 |
| EKPPSGTKEKKHQCDHCERCFYTD | 5.07 |
| EKPPSGTKEKKHQCDHCERCFYTE | 4.67 |
| EKPPSGTKEKKHQCDHCERCFYTF | 4.35 |
| EKPPSGTKEKKHQCDHCERCFYTG | 4.24 |
| EKPPSGTKEKKHQCDHCERCFYTH | 4.67 |
| EKPPSGTKEKKHQCDHCERCFYTI | 4.37 |
| EKPPSGTKEKKHQCDHCERCFYTK | 4.74 |
| EKPPSGTKEKKHQCDHCERCFYTL | 4.29 |
| EKPPSGTKEKKHQCDHCERCFYTM | 4.68 |
| EKPPSGTKEKKHQCDHCERCFYTN | 4.55 |
| EKPPSGTKEKKHQCDHCERCFYTP | 4.9 |
| EKPPSGTKEKKHQCDHCERCFYTQ | 5.28 |
| EKPPSGTKEKKHQCDHCERCFYTS | 4.33 |
| EKPPSGTKEKKHQCDHCERCFYTT | 4.93 |
| EKPPSGTKEKKHQCDHCERCFYTV | 4.07 |
| EKPPSGTKEKKHQCDHCERCFYTW | 4.29 |
| EKPPSGTKEKKHQCDHCERCFYTY | 3.96 |

Variants of: B2
Assay: as above
Conditions: c terminus: a fixed tail appended

| Variant | protein stability index |
| --- | --- |
| AAWQGHLPIVKWLAKQPGVSVNAQ | 1.33 |
| AAWQGHLPIVKLLAHQPGVSVNAQ | 2.43 |
| AAWQGHLPIVKLLMKQPGVSVNAQ | 2.07 |
| AAWQGHLPIVKLKAKQPGVSVNAQ | 2.86 |
| AAWQGHYPIVKLLAKQPGVSVNAQ | 2.05 |
| AAWQGHLPIVKLYAKQPGVSVNAQ | 2.94 |
| AAWQIHLPIVKLLAKQPGVSVNAQ | 1.81 |
| AAWQGHLPIVKLLAQQPGVSVNAQ | 1.81 |
| APWQGHLPIVKLLAKQPGVSVNAQ | 3.69 |
| AAWSGHLPIVKLLAKQPGVSVNAQ | 2.18 |
| AAWQSHLPIVKLLAKQPGVSVNAQ | 2.2 |
| AAWQGHLPIVKLLAKQPSVSVNAQ | 2.54 |
| AAWQGHLPIVKLLAKQPGPSVNAQ | 3.08 |
| AAWQGHLPIVKLLAKQPGVRVNAQ | 2.97 |
| AAWQGHLPIVKLLAKQPGVQVNAQ | 2.35 |
| AAWQGHLPIVVLLAKQPGVSVNAQ | 1.84 |
| AAWQGHLPIVRLLAKQPGVSVNAQ | 1.72 |
